“And” between values parts separate entries of the source, which are not always exact repeats. Equal entries are not always repeated.
Columns and labels:
[1] = Isothermal titration calorimetry (ITC); assay type: binding; conditions: 30° C.
Experimental: For ITC experiments, wild-type G-aptamer and the mutant RNAs were synthesized by in vitro transcription of the DNA template and purified by denaturing polyacrylamide gel electrophoresis (PAGE). The ligand guanine was introduced in the syringe, while the RNA into the sample cell at a final concentration of 10 μM and 1 μM respectively. The concentrations were determined by absorbance reading using ε260=12010 M^−1 cm^−1 (guanine) and ε260=711400 M^−1 cm^−1 (RNA). The buffer in the syringe and the sample cell contained 50 mM K^+ Hepes (pH 7.5), 100 mM KCl, and 10 mM MgCl2. Binding reactions were performed at 30° C. on a MicroCal iTC200 instrument (Malvern) with a reference power of 6 μcal/sec, an initial delay of 60 secs and a stirring speed of 750 rpm. Guanine was titrated into the sample cell in 16 injections (2.5 μl each). The injection rate was 0.5 μl/sec and the spacing between the injections was maintained at 120 sec. Data was baseline corrected and fitted to a single-site binding model to obtain association constant (KA), stoichiometry (n) and binding enthalpy, ΔH. The dissociation constant (KD) and the binding free energy, ΔG was obtained from the fitted parameters using the following relations. All data analysis was performed using the Origin ITC software.
The ITC results are reported as mean±standard deviation from three independent experiments.

[2] = Constant-force (CF) single-molecule optical tweezers folding assay of guanine-aptamer RNAs in guanine buffer; assay type: physicochemical; conditions: for F^eq / k^eq: [G] = 200 nM; for Observed nucleotides / Observed ΔXobs: CF; for k^eq: at F^eq; for Equilibrium force F^eq / Folding rate kf / Unfolding rate ku / Transition distance ΔX / ΔG (0): 3 mM Mg^2+; for Folding rate kf / Unfolding rate ku / Transition distance ΔX / ΔG (0): 200 nM G
Text: The aptamer folding was monitored in real time using a constant-force (CF) assay. Equilibrium sampling techniques provide unprecedented insights into the rare events in the course of folding that are otherwise difficult to identify. The technique also allows for determination of the kinetic rates that has not been fully investigated in the guanine riboswitch. The relative dynamics of the helices have been investigated in ensemble and smFRET experiments, which indicated a non-dynamic P1-P3, upon which the P2 helix switches conformations. As shown in FIG. 6A (left panel), the RNA oscillated between the linear and the hairpin conformations (E↔D↔C) at 13 pN. The distances ΔXED=7.1±0.4 nm and ΔXDC=7.9±0.4 nm correspond to the folding of a 17±1 nt (P2) and 19±1 nt (P3) respectively (FIGS. 7A-B). The conversion of distances to nucleotides in CF assay are described in Table 2.
A miniaturized dual beam optical tweezers instrument was constructed with a sampling rate of 0.4, 4 and 40 kHz. Typically, in the tweezers set up (FIGS. 2A-E), a single-molecule of RNA is held between two beads via ˜550 nucleotide (nt) long Handles A and B. Preparation of Handles and the RNA is described in the section above. The streptavidin coated polystyrene bead (diameter 1.5-1.9 μm, Spherotech Inc.) is fixed on a micropipette via suction, and the anti-digoxigenin coated bead (diameter 4.0-4.9 μm, Spherotech Inc.) is held in the dual counter-propagating laser beam. The trap stiffness, K is measured at 0.04-0.06 pN/nm from the power spectrum analysis of the Brownian motion of the trapped bead. For power spectrum analysis, a polystyrene bead with diameter ˜4.6 μm is trapped in the counter-propagating laser beam in aqueous buffer with a fixed trap position. […] The average from 10 beads yielded K˜0.049±0.0008 pN/nm, and the stoke's drag coefficient, y=0.0364±0.0002 pN. s/μm. […] However, the autocorrelation time (τ0) defined as the τ1=1/2πfc as described by Zoldak et al., “Ultrafast folding kinetics and cooperativity of villin headpiece in single-molecule force spectroscopy”. Proc. Natl. Acad. Sci. U.S.A 110, 18156 (2013) sets the detection limit for the observable kinetics, which is different from the sampling frequencies. […] The ACF for the time series of force signal, Fi, with sampling rate δ and N data points, is calculated as,
In a constant-force (CF) experiment, the RNA is held at a preset force through feedback control. The preset force typically fluctuated around the mean with a standard deviation ±0.15 pN. In this mode, data is recorded from 4-40 kHz to capture the fast intermediates. The plots are shown as extension vs. time (as in FIG. 6A). In force-jump (FJ) assay, the force is suddenly jumped from one force to another, and then held constant thereafter, as shown in FIGS. 23A-B.
All FR, CF and FJ experiments were carried out at an ambient temperature, 25±0.5° C. The buffer in the microfluidics contained 10 mM Tris-HCl, pH 7.5 at 25° C., 250 mM NaCl, 3 mM MgCl2, and purine concentrations as indicated in wild-type aptamer. Unless stated otherwise, Mg^2+ concentration in the buffer was maintained at 3 mM in all experiments. The buffer in mutant m1 contained 5 mm Mg^2+ and 1 μM G, and in m3 contained 5 mM Mg^2+ and 200 nM Guanine. For the remaining m2, m4, m5 and m6 mutants, the buffer in single-molecule experiments was supplemented only with 3 mM Mg^2+ and 200 nM Guanine.
In the force-ramp experiment, the trap was moved away (pull cycle) from the micropipette at 200 nm/sec, which corresponded to a loading rate of 7-8 pN/sec. This movement of the trap exerted a tension at the ends of the tethered RNA aptamer. […] In the constant-force (CF) experiment, the RNA was held at a preset force (FIG. 6A). The loading rate in CF experiments was zero. The preset force typically fluctuated around the mean with standard deviation ±0.15 pN. […]

[3] = transition BA (P1 folding), F 8.5 pN
[4] = transition CB (J2/3 folding), F 13 pN
[5] = transition C′B (L2-L3 folding), F 8.5 pN
[6] = transition DC (P3 folding), F 13 pN
[7] = transition ED (P2 folding), F 13 pN

B1: wt: 69-nucleotide full-length wild-type guanine sensing aptamer RNA sequence from xpt-pbuX operon in B. subtilis (SEQ ID NO: 1) (nucleic acid)
chain: CACUCAUAUAAUCGCGUGGAUAUGGCACGCAAGUUUCUACCGGGCACCGUAAAUGUCCGACUAUGGGUG
modifications: RNA, backbone and methylation of C not given here
[1]
  ΔG of guanine binding: -11.63 ± 0.20 kcal/mol
  ΔH of guanine binding: -63.7 ± 1.1 kcal/mol
[1]; 50 mM K^+ Hepes pH 7.5, 100 mM KCl, 10 mM MgCl2, read-out: KD for guanine
  Kd: 4.22 ± 0.6 nM
[2]; Closed J2/3 (CB)
  F^eq: ~13 pN
[2]; FIG. 22
  Time to form the native receptor structure after guanine binding: ~8 μsec
[2]; J2/3 (CB), 13 pN
  Observed nucleotides: 8.4 ± 0.2
  Observed ΔXobs: 3.5 ± 0.1 (CF) nm
[2]; L2-L3 (C′B), 8.5 pN
  Observed ΔXobs: 3.4 ± 0.1 (CF) nm
[2]; L2-L3 (C′B)
  F^eq: 8.72 ± 0.11 pN
  k^eq: 0.82 ± 0.06 s⁻¹
[2]; P1 (BA)
  F^eq: 8.21 ± 0.11 pN
  k^eq: 0.55 ± 0.09 s⁻¹
[2]; P1+ junctions (BA), 8.5 pN
  Observed nucleotides: 21.7 ± 0.5
[2]; P1+ junctions (BA), 8.5 pN, 2 nm helix width subtracted
  Observed ΔXobs: 8.0 ± 0.2 (CF) nm
[2]; P2 (ED)
  F^eq: 13.49 ± 0.03 pN
  k^eq: 13.20 ± 0.20 s⁻¹
[2]; P2 hairpin (ED), 13 pN
  Observed nucleotides: 17±1
  Observed ΔXobs: 7.1 ± 0.4 (CF) nm
[2]; P3 (DC)
  F^eq: 12.19 ± 0.02 pN
  k^eq: 16.80 ± 0.30 s⁻¹
[2]; P3 hairpin (DC), 13 pN
  Observed nucleotides: 19±1 and 18.9 ± 1
  Observed ΔXobs: 7.9 ± 0.4 (CF) nm
[2]; free energy landscape transformed to zero force
  Barrier ΔGP1^‡ before folding of the P1-stem: ~6 kBT
[2]; guanine-aptamer
  F^eq for P2-P3: ~13 pN
[2]; range over Table 1
  Rates for the two hairpins P2 and P3: 8.5 to 32.3 s⁻¹
[2]; transition BA (P1 folding), 200 nM G (rates at 8.5 pN)
  Equilibrium force F^eq: 8.2 ± 0.1 pN
[2]; [3]
  Folding rate kf: 0.4 ± 0.03 s⁻¹
  Unfolding rate ku: 0.7 ± 0.09 s⁻¹
[2]; transition BA (P1 folding), F 8.5 pN, no helix width adjustment
  Transition distance ΔX: 9.9 ± 0.2 nm
[2]; transition BA (P1 folding), zero force, from data at 8.5 pN
  ΔG (0): −13.9 ± 0.4 kBT
[2]; transition BA (P1 folding), zero force, from data at 8.5 pN, listed as wild-type
  ΔG (0): −13.9 kBT
[2]; [4]
  Transition distance ΔX: 3.5 ± 0.1 nm
  Unfolding rate ku: 2.6 ± 0.5 s⁻¹
[2]; transition CB (J2/3 folding), zero force, ΔG(0) = −F·ΔX + ΔGstretch
  ΔG (0): −7.2 ± 0.3 kBT
[2]; transition C′B (L2-L3 folding), 200 nM G (rates at 8.5 pN)
  Equilibrium force F^eq: 8.7 ± 0.1 pN
[2]; [5]
  Folding rate kf: 0.9 ± 0.06 s⁻¹
  Transition distance ΔX: 3.4 ± 0.1 nm
  Unfolding rate ku: 0.8 ± 0.05 s⁻¹
[2]; transition C′B (L2-L3 folding), zero force, from data at 8.5 pN
  ΔG (0): −7.1 ± 0.2 kBT
[2]; transition DC (P3 folding), 200 nM G (rates at 13 pN)
  Equilibrium force F^eq: 12.2 ± 0.02 pN
[2]; transition DC (P3 folding), 200 nM G (rates at 13 pN), listed as wild-type
  Equilibrium force F^eq: 12.2±0.02 pN
[2]; [6]
  Folding rate kf: 8.5 ± 0.1 s⁻¹
  Transition distance ΔX: 7.9±0.4 nm
  Unfolding rate ku: 32.3 ± 0.5 s⁻¹
[2]; transition DC (P3 folding), zero force, from data at 13 pN
  ΔG (0): −16.3 ± 0.3 kBT
[2]; transition DC (P3 folding), zero force, from data at 13 pN, listed as wild-type
  ΔG (0): −16.3 kBT
[2]; transition ED (P2 folding), 200 nM G (rates at 13 pN)
  Equilibrium force F^eq: 13.5 ± 0.03 pN
[2]; transition ED (P2 folding), 200 nM G (rates at 13 pN), listed as wild-type
  Equilibrium force F^eq: 13.5±0.03 pN
[2]; [7]
  Folding rate kf: 20.0 ± 0.4 s⁻¹
  Transition distance ΔX: 7.1±0.4 nm
  Unfolding rate ku: 8.9 ± 0.1 s⁻¹
[2]; transition ED (P2 folding), zero force, from data at 13 pN
  ΔG (0): −16.7 ± 0.3 kBT
[2]; zero force, guanine-bound receptor structure
  Net free energy change ΔΔGaptamer: −81 kT

From patent publication US11905559B2, “Materials and methods for controlling gene expression” (priority 2016, dated 2024)
